Assay [1] concerns the target host cellular β-tubulin (293T cells) (human (endogenous in 293T)) (UniProt P07437). Briefly: co-IP.
For assay [2], the target named is host cellular β-tubulin (Vero cells) (African green monkey (endogenous in Vero)). Briefly: co-IP.

As for “3xFLAG-tagged C-terminal half of TgRON4 (TgRON4B) (domain or fragment)”, the ratio of precipitated TgRON4 to TgRON4 in total membrane fraction in assay [1] was determined as 0.82%; in assay [2] it was 0.56%. Consider “3xFLAG-tagged full-length TgRON4 lacking its putative signal sequence (TgRON4-Full) (from UniProt B6KJ32 27-984) (natural protein)”, for which the ratio of precipitated TgRON4 to TgRON4 in total membrane fraction in assay [2] worked out at 1%.

The record behind these values is article PMC3824165.
